Laboratory results as given in publication PMC5477135, “Imaging of αvβ3 integrin expression in experimental myocardial ischemia with [^68Ga]NODAGA-RGD positron emission tomography” (Journal of Translational Medicine, 2017).
Marks after values point to notes of the source that are not given here.

What was measured:
[1] = tested on: αvβ3 integrin; details: pig, in vivo
From the text: Subsequently, the pigs were euthanized and their hearts were excised. Based on 1% 2,3,5-triphenyltetrazolium chloride (TTC) (Sigma-Aldrich, Saint Louis, MO, USA) staining, tissue samples were obtained from the injured ischemic (TTC negative) and adjacent viable ischemic (TTC positive) myocardium as well as from the remote non-ischemic myocardium. Autoradiography of myocardial tissue sections was used to compare [^68Ga]NODAGA-RGD uptake with the histology, αvβ3 integrin expression and CD31 on endothelial cells. Tissue samples were frozen in isopentane mixed with dry ice and cut into serial 40 and 7 µm sections for autoradiography and immunohistochemical stainings respectively, using a cryomicrotome. Tissue sections of 40 μm thickness were immediately exposed on a phosphor imaging plate (BAS-TR2025, Fuji Photo Film Co. Ltd., Tokyo, Japan) for 2 h. The distribution of radioactivity on the plate was visualized and quantified using a Fluorescent Image Analyzer (Fujifilm FLA-5100, Fuji Photo Film Co. Ltd., Tokyo, Japan). Autoradiographs and hematoxylin & eosin (HE) staining images of the same sections were co-registered and [^68Ga]NODAGA-RGD accumulation was measured by drawing ROIs covering remote myocardium, and either viable or injured ischemic myocardium using TINA™ 2.10f software (Raytest Isotopenmessgeräte GmbH., Straubenhardt, Germany). Results were expressed as photostimulated luminescence per square millimetre (PSL/mm^2) and normalized for the injected radioactivity dose, animal weight and the radioactivity decay. Serial tissue sections of 7 μm were stained with H&E for general histology, Masson’s trichrome for differentiation myocytes and collagenous scar, and immunohistochemistry with antibodies against of CD31 on endothelial cells (dilution 1:250, Thermo Scientific, Cheshire, UK), αvβ3 integrin (dilution 1:200, Millipore, Temecula, CA, USA) and α-smooth muscle actin on myofibroblasts (dilution 1:30,000, Sigma-Aldrich, St. Louis, MO, USA). […]

[2] = tested on: αvβ3 integrin; assay: in vivo; details: pig
Description: (§1) Coronary stenosis was created in 11 domestic, 3-month old pigs weighing 30–35 kg by implanting a bottleneck stent in the proximal LAD coronary artery as described previously. In addition, a sham group of 4 pigs underwent a catheterization procedure without the stent implantation. Myocardial [^68Ga]NODAGA-RGD uptake was evaluated by PET 13 ± 4 days after the stent implantation. […] Three pigs without a perfusion defect during adenosine stress were considered as procedural failures and excluded from further in vivo analyses.
(§2) Then a [^68Ga]NODAGA-RGD PET was performed with an ECAT EXACT HR+ scanner (Siemens-CTI, Knoxville, TN, USA). The studies were started with a 10 min transmission scan. The dynamic scanning started at the same time as 310 ± 43 MBq (230–400 MBq) of [^68Ga]NODAGA-RGD was injected via the ear vein. The acquisition time frames were as follows: 18 × 10 s, 4 × 30 s, 2 × 120 s, 1 × 180 s, 4 × 300 s, 3 × 600 s (total duration 62 min). The acquired [^68Ga]NODAGA-RGD PET data were corrected for scatter, random counts, and dead time and iteratively reconstructed with ordered-subsets expectation maximization (OSEM) algorithm using 2 iterations and 32 subsets. The whole transaxial field of view (70 cm) was reconstructed in 256 × 256 matrix yielding to pixel size of 2.57 mm × 2.57 mm. The device produces 63 axial planes with a slice thickness of 2.43 mm.
(§3) For quantification of [^68Ga]NODAGA-RGD uptake in the myocardium, the [^15O]water images and the [^68Ga]NODAGA-RGD images were co-registered using the high blood pool activity of the [^68Ga]NODAGA-RGD as a landmark (Fig. 1). The myocardial contours from the [^15O]water images were copied to the co-registered [^68Ga]NODAGA-RGD data. Then, the polar maps of [^68Ga]NODAGA-RGD uptake expressed as standardized uptake value (SUV) (time frame 52–62 min after injection) in the LV myocardium were generated using matching image orientation and sampling points. The region of interest (ROI) defining the ischemic area was copied from the [^15O]water polar maps to measure [^68Ga]NODAGA-RGD uptake in this region. The septum was excluded from the measurements to prevent spillover from the blood in the right ventricle. The mean and maximum SUVs were determined from the ischemic area. In order to measure the SUVs, ROI was modified to include only the mid-myocardium in order to avoid spill-over from blood. The maximum SUV within the ROI was determined from area showing visually the highest uptake. One segment in the posterolateral wall (segment 11) that was always outside the ischemic area was used to measure [^68Ga]NODAGA-RGD uptake in the remote myocardium. The ischemic-to-remote SUV ratio was calculated in the ischemic area and remote myocardium.

[3] = in vivo; details: Finnish landrace, pig, iv, total radioactivity
Description: as §1, §2, §3

[4] = in vitro; format: in vitro ADME; details: plasma
Description: To evaluate species-dependent differences, the [^68Ga]NODAGA-RGD binding to human, pig and rat plasma proteins was measured using in vitro assay as described previously.

[5] = tested on: αvβ3 integrin; details: pig, in vivo; remark: listed apart in the source
From the text: Subsequently, the pigs were euthanized and their hearts were excised. Based on 1% 2,3,5-triphenyltetrazolium chloride (TTC) (Sigma-Aldrich, Saint Louis, MO, USA) staining, tissue samples were obtained from the injured ischemic (TTC negative) and adjacent viable ischemic (TTC positive) myocardium as well as from the remote non-ischemic myocardium. Autoradiography of myocardial tissue sections was used to compare [^68Ga]NODAGA-RGD uptake with the histology, αvβ3 integrin expression and CD31 on endothelial cells. Immediately after the PET scanning, the animals were sacrificed by an i.v. injection of potassium chloride (B. Braun Medical Oy, Helsinki, Finland). The heart was excised, the LV was cut into 4 short axis slices from base to apex that were incubated for 15 min in 1% TTC (Sigma-Aldrich, Saint Louis, MO, USA), diluted in phosphate-buffered saline (pH 7.4) at 37 °C, photographed from both sides and the presence of non-viable ischemic area was confirmed visually. Based on the TTC staining, transmural samples containing non-viable and immediately adjacent viable myocardium were collected from the LV wall corresponding to the ischemic area in PET images. Another sample was obtained from the posterior LV wall representative of the remote region (segment number 11). Myocardial samples and a blood sample were weighed and measured for radioactivity using the gamma counter (Wizard). The radioactivity concentration was expressed as standardized uptake values (SUV = ([tissue radioactivity/tissue weight]/[total given radioactivity/animal body weight])).

[6] = in vivo; details: pig, iv, total radioactivity
Description: During the [^68Ga]NODAGA-RGD PET imaging, blood samples (2 ml) were obtained into heparinized tubes from the femoral artery 2, 5, 10, 20, 30, 40, 50 and 60 min after the injection of [^68Ga]NODAGA-RGD for the measurements of total radioactivity, radiometabolites (proportion of authentic tracer), and plasma-to-blood ratio. The radioactivities of whole blood and blood plasma were measured using a gamma counter (1480 Wizard 3″; PerkinElmer, Turku, Finland).

N=C(N)NCCC[C@@H]1NC(=O)[C@H](CCCCNC(=O)CCC(C(=O)O)N2CCN(CC(=O)O)CCN(CC(=O)O)CC2)NC(=O)[C@@H](Cc2ccc(O)cc2)NC(=O)[C@H](CC(=O)O)NC(=O)CNC1=O (stereo partly shown) [[^68Ga]NODAGA-RGD, metal not drawn]
mean uptake by autoradiography, injured area [1]: 4.6 ± 2.1 PSL/mm^2
mean uptake by autoradiography, remote area [1]: 1.8 ± 0.61 PSL/mm^2
mean uptake by autoradiography, viable ischemic area [1]: 2.2 ± 0.85 PSL/mm^2
average myocardial uptake in the ischemic area higher than in the remote myocardium [2]: 26%
average uptake in the LV myocardium (SUV) [2]: 0.42 ± 0.10 SUV
uptake in anteroseptal wall (segments 7 and 13) (SUV) [2]: 0.39 ± 0.11 SUV
uptake in posterolateral wall (segment 11) (SUV) [2]: 0.36 ± 0.078 SUV
Injured area SUVMax ([2]; iv): 0.80 ^† SUV
Ischemic area SUVMean ([2]; iv): 0.61* SUV
SUV [3]: 1.3 ± 0.2 SUV
fraction unbound ([4]; pig): 0.93 ± 0.017
fraction unbound ([4]; rat): 0.94 ± 0.011
radioactivity in tissue sample from injured myocardium (SUV) [5]: 0.79 ± 0.21 SUV
radioactivity in tissue sample from remote myocardium (SUV) [5]: 0.49 ± 0.21 SUV
radioactivity in tissue sample from viable ischemic myocardium (SUV) [5]: 0.49 ± 0.17 SUV
tissue to tissue ratio [6]: 1.4 ± 0.1
